The experiment addresses PybHLH3: Nluc (pear 'Red Zaosu' (P. pyrifolia × P. communis)).

Consider “PyMYB107 (co-expressed as competitor) (natural protein)”, for which the dual-luciferase assay, LUC/REN ratio of the PyUFGT promoter activated by PyMYB10 with PybHLH3; ratio of PyMYB107:PyMYB10 from 0:1 (0.48) to 1:1 (0.26) (LUC/REN ratio) was 0.26.

For the origin of these results see paper PMC11215833.
